Data: publication PMC6701479, “KAP1 is an antiparallel dimer with a functional asymmetry” (Life Science Alliance, 2019)

Columns and labels:
[1] = biological target: the molecule itself; test: SEC-MALS; KAP1 constructs alone, 10 to 40 μM; Superose 6 10/300 GL; 20 mM Hepes pH 7.5, 300 mM NaCl, 2 mM TCEP
[2] = biological target: Atto 532–labeled HP1α (UniProt P45973 1-191, Atto 532 on a tripeptide (Thz-G2-C3-CONH2, thiazolidine opened) joined to the C terminus; C-terminal amide); test: cell-based or functional assay
Chain of Atto 532–labeled HP1α (P45973 whole entry): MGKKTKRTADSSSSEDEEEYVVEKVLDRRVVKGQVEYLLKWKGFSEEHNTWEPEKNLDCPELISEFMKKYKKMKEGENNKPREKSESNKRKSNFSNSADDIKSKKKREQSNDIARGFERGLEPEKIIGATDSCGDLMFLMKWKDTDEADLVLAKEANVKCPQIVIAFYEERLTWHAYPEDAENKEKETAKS

Row | Binder | stoichiometry N [1] | slow residence time τ_(off,2) of HP1α on H3K9me3 chromatin fibers (smTIRF), KAP1 50 to 400 nM [2] [fold]
1 | KAP1 RBCC domain (RBCC, 23–418) (domain or fragment, human, UniProt Q13263 23-418, looked up, KAP1 (TRIM28), human, RBCC domain (RING, B-box 1, B-box 2, coiled coil), residues 23–418; His6 tag and TEV site precede the protein; no cleavage step is described; also called N-terminal RBCC domain of KAP1; source: E. coli Rosetta (DE3) / Rosetta (DE3) pLys, purified (HisTrap, desalting, SEC)) GEGSAGGEKRSTAPSAAASASASAAASSPAGGGAEALELLEHCGVCRERLRPEREPRLLPCLHSACSACLGPAAPAAANSSGDGGAAGDGTVVDCPVCKQQCFSKDIVENYFMRDSGSKAATDAQDANQCCTSCEDNAPATSYCVECSEPLCETCVEAHQRVKYTKDHTVRSTGPAKSRDGERTVYCNVHKHEPLVLFCESCDTLTCRDCQLNAHKDHQYQFLEDAVRNQRKLLASLVKRLGDKHATLQKSTKEVRSSIRQVSDVQKRVQVDVKMAILQIMKELNKRGRVLVNDAQKVTEGQQERLERQHWTMTKIQKHQEHILRFASWALESDNNTALLLSKKLIYFQLHRALKMIVDPVEPHGEMKFQWDLNAWTKSAEAFGKIVAERPGTNST | 2 | 
2 | ΔKAP1 (23–812) (domain or fragment, human, UniProt Q13263 23-812, looked up, His6 tag and TEV site precede the protein; no cleavage step is described; source: E. coli Rosetta (DE3) / Rosetta (DE3) pLys, purified (HisTrap, desalting, SEC)) GEGSAGGEKRSTAPSAAASASASAAASSPAGGGAEALELLEHCGVCRERLRPEREPRLLPCLHSACSACLGPAAPAAANSSGDGGAAGDGTVVDCPVCKQQCFSKDIVENYFMRDSGSKAATDAQDANQCCTSCEDNAPATSYCVECSEPLCETCVEAHQRVKYTKDHTVRSTGPAKSRDGERTVYCNVHKHEPLVLFCESCDTLTCRDCQLNAHKDHQYQFLEDAVRNQRKLLASLVKRLGDKHATLQKSTKEVRSSIRQVSDVQKRVQVDVKMAILQIMKELNKRGRVLVNDAQKVTEGQQERLERQHWTMTKIQKHQEHILRFASWALESDNNTALLLSKKLIYFQLHRALKMIVDPVEPHGEMKFQWDLNAWTKSAEAFGKIVAERPGTNSTGPAPMAPPRAPGPLSKQGSGSSQPMEVQEGYGFGSGDDPYSSAEPHVSGVKRSRSGEGEVSGLMRKVPRVSLERLDLDLTADSQPPVFKVFPGSTTEDYNLIVIERGAAAAATGQPGTAPAGTPGAPPLAGMAIVKEEETEAAIGAPPTATEGPETKPVLMALAEGPGAEGPRLASPSGSTSSGLEVVAPEGTSAPGGGPGTLDDSATICRVCQKPGDLVMCNQCEFCFHLDCHLPALQDVPGEEWSCSLCHVLPDLKEEDGSLSLDGADSTGVVAKLSPANQRKCERVLLALFCHEPCRPLHQLATDSTFSLDQPGGTLDLTLIRARLQEKLSPPYSSPQEFAQDVGRMFKQFNKLTEDKADVQSIIGLQRFFETRMNEAFGDTKFSAVLVEP | 2 | 
3 | KAP1 full-length protein (KAP1 FL, 1–835) (natural protein, human, UniProt Q13263 1-835, looked up, KAP1 (TRIM28, TIF1β), human, residues 1–835, complete full-length protein; His6 tag followed by a TEV protease cleavage site precedes the protein (pETDuet-1); no cleavage step is described; also called TIF1β; TRIM28; source: E. coli Rosetta (DE3) / Rosetta (DE3) pLys, purified (HisTrap, desalting, SEC)) MAASAAAASAAAASAASGSPGPGEGSAGGEKRSTAPSAAASASASAAASSPAGGGAEALELLEHCGVCRERLRPEREPRLLPCLHSACSACLGPAAPAAANSSGDGGAAGDGTVVDCPVCKQQCFSKDIVENYFMRDSGSKAATDAQDANQCCTSCEDNAPATSYCVECSEPLCETCVEAHQRVKYTKDHTVRSTGPAKSRDGERTVYCNVHKHEPLVLFCESCDTLTCRDCQLNAHKDHQYQFLEDAVRNQRKLLASLVKRLGDKHATLQKSTKEVRSSIRQVSDVQKRVQVDVKMAILQIMKELNKRGRVLVNDAQKVTEGQQERLERQHWTMTKIQKHQEHILRFASWALESDNNTALLLSKKLIYFQLHRALKMIVDPVEPHGEMKFQWDLNAWTKSAEAFGKIVAERPGTNSTGPAPMAPPRAPGPLSKQGSGSSQPMEVQEGYGFGSGDDPYSSAEPHVSGVKRSRSGEGEVSGLMRKVPRVSLERLDLDLTADSQPPVFKVFPGSTTEDYNLIVIERGAAAAATGQPGTAPAGTPGAPPLAGMAIVKEEETEAAIGAPPTATEGPETKPVLMALAEGPGAEGPRLASPSGSTSSGLEVVAPEGTSAPGGGPGTLDDSATICRVCQKPGDLVMCNQCEFCFHLDCHLPALQDVPGEEWSCSLCHVLPDLKEEDGSLSLDGADSTGVVAKLSPANQRKCERVLLALFCHEPCRPLHQLATDSTFSLDQPGGTLDLTLIRARLQEKLSPPYSSPQEFAQDVGRMFKQFNKLTEDKADVQSIIGLQRFFETRMNEAFGDTKFSAVLVEPPPMSLPGAGLSSQELSGGPGDGP | 2 | ~3
